In patent US20230051701A1 (Bristol-Myers Squibb, published 2023):
Several values for one entry are separate records, joined by “and”; a condition that tells them apart may be missing. Equal values may be shown once.

How the values were obtained:
[1] = molecular target: T1, human CD73 on cells (Calu6, NCI-H292, SK-MEL-24, human tumor cell lines, human B and T cells) (human, UniProt P21589 27-549); test: flow cytometry, Calu6 cells, anti-human IgG secondary (unstained -8.27, sec only 30.3)
T1 construct: Endogenous protein; also called endogenous CD73; cellular CD73
T1 sequence: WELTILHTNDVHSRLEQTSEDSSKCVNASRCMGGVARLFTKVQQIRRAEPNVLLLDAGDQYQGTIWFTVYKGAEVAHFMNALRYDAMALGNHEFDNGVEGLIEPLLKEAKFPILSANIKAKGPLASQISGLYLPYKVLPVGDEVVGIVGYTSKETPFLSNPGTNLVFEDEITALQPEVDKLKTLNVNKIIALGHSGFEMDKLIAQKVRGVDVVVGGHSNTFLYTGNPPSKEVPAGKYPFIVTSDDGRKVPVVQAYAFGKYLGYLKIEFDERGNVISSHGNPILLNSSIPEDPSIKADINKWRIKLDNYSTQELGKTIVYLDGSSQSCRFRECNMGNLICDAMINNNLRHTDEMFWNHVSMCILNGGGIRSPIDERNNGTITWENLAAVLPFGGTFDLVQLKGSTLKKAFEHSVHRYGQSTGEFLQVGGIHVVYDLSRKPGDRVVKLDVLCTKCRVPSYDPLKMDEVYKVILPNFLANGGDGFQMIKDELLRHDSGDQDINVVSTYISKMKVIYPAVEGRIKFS

[2] = molecular target: T2, rhCD73 bound to his-tag magnet beads (human, UniProt P21589 27-549, limits assumed); test: cell-based or functional assay
T2 sequence: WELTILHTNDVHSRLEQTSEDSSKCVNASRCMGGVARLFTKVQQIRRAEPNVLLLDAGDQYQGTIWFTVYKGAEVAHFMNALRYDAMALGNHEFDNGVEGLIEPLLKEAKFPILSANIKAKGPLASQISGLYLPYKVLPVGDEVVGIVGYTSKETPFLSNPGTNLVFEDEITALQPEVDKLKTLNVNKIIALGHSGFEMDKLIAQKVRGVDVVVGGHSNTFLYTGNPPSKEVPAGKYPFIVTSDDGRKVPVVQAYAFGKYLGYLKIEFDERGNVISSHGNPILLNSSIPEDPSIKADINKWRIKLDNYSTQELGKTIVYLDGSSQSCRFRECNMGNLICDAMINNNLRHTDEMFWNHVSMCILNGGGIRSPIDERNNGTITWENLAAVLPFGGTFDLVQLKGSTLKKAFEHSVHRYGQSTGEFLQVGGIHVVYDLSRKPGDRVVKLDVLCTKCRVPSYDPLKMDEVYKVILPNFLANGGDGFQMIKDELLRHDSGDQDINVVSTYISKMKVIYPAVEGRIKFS

[3] = molecular target: T3, cynomolgus CD73 on transfected CHO cells (cynomolgus, UniProt P21589 27-549 (human entry)); test: flow cytometry, CHO-cynoCD73 cells, anti-human IgG secondary; column 'Kd (ng/mL)'
T3 construct: also called CHO-cynoCD73; cyno CD73 positive CHO cells
T3 chain: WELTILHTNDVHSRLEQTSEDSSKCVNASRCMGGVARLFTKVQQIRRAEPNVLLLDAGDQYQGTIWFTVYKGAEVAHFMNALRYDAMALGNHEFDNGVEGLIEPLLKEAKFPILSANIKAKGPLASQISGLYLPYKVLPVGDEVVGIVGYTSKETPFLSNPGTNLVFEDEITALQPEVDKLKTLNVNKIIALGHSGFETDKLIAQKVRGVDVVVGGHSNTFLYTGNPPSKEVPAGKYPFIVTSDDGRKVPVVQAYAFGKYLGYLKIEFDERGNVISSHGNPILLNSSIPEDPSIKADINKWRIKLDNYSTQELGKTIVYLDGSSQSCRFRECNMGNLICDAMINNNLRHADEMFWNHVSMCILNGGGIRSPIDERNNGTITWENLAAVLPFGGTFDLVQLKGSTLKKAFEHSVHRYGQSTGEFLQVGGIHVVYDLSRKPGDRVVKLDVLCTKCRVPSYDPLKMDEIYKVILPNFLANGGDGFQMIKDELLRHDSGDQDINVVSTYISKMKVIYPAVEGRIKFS

[4] = molecular target: T3, cynomolgus CD73 on transfected CHO cells; test: flow cytometry, CHO-cynoCD73 cells
Experimental: Titration binding curves were produced with CD73 antibodies on Calu6 (CD73 endogenous expressors; human pulmonary adenocarcinoma cell line), DMS114 (CD73 negative; human small cell lung cancer cell line), CHO-cynoCD73 (cynoCD73-transfected) and CHO-K1 (cynoCD73 negative), cells using Alexa Fluor® 647 Goat Anti-Human IgG (H+L) as a secondary antibody, Invitrogen Cat#A-21445, using the following method: 100000 cells were plated in 100 uL PBS+2% FBS per well and blocked for 20 min. Using a U-bottom 96-deep well plate, volumes of antibody and PBS+2% FBS were combined as dictated by Table 12 below.
An 8-point serial dilution was performed by diluting a sixth of the volume (90 uL) into 450 μL PBS+2% FBS. The cell plate was spun down for 5 minutes at 1500 rpm. 100 uL of diluted antibody was added per well of the plate. 100 uL PBS+2% FBS were added to all other wells. […] The plates were spun down at 1500 rpm for 5 min and washed in 200 uL PBS +2% FBS per well. The plates were washed again, resuspended in 200 uL 2% FBS in PBS per well and the samples were run.

[5] = molecular target: T1, human CD73 on cells (Calu6, NCI-H292, …); test: cell-based or functional assay
[6] = molecular target: T1, human CD73 on cells (Calu6, NCI-H292, …); test: cell-based or functional assay; remark: listed apart in the source
[7] = molecular target: T3, cynomolgus CD73 on transfected CHO cells; test: flow cytometry, CHO-cynoCD73 cells, anti-human IgG secondary (unstained 4.81, sec only 18.5)
[8] = molecular target: T1, human CD73 on cells (Calu6, NCI-H292, …); test: cell-based or functional assay; remark: listed apart in the source
[9] = molecular target: T4, N-terminal domain of hCD73 (residues 26-336 of human CD73), His-tagged (human, UniProt P21589 26-336); test: SPR, mAb captured on protein A
T4 construct: also called N-hCD73; N-hCD73-his
T4 sequence: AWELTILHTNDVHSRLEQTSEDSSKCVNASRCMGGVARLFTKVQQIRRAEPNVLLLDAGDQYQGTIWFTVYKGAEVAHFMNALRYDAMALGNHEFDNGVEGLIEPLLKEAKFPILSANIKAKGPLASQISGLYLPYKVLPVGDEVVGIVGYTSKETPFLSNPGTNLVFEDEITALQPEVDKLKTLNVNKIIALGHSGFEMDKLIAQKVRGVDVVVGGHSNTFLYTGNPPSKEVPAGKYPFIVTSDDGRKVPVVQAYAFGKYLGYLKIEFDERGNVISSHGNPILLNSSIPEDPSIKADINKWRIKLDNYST
Experimental: For these experiments, protein A (Pierce) was immobilized to a density of 3000 — 4000 RU on flow cells 1-4 of a CM5 sensor chip (GE Healthcare) using standard ethyl(dimethylaminopropyl) carbodiimide (EDC)/N-hydroxysuccinimide (NHS) chemistry, with ethanolamine blocking, in a running buffer of 0.01 M HEPES pH 7.4, 0.15 M NaCl, 3 mM EDTA, 0.005% v/v tween 20. […] The running buffer for the kinetic experiments was 10 mM sodium phosphate, 130 mM sodium chloride, 0.05% tween 20, pH 7.1. The surfaces were regenerated after each cycle using two 30 s pulses of 10 mM glycine pH 1.5 at a flow rate of 30 μl/min. Sensogram data was double-referenced and then fitted to a 1:1 Langmuir model using Biacore T100 evaluation software v2.0.4, to determine the association rate constant (ka), the dissociation rate constant (kd), and the equilibrium dissociation constant (KD).

B1: 11F11 (antibody, human IgG2, kappa, V domains shown)
VH: QVQLVESGGGVVQPGRSLRLSCATSGFTFSNYGMHWVRQAPGKGLEWVAVILYDGSNKYYPDSVKGRFTISRDNSKNTLYLQMNSLRAEDTAVYYCARGGSSWYPDSFDIWGQGTMVTVSS
VL: DIQMTQSPSSLSASVGDRVTITCRASQGISSWLAWYQQKPEKAPKSLIYAASSLQSGVPSRFSGSGSGTDFTLTISSLQPEDFATYYCQQYNSYPLTFGGGTKVEIKR
notes: Human IgG2 from hybridoma
MFI at 0.07 ng/mL antibody [1]: 788 | MFI at 0.43 ng/mL antibody [1]: 1290 | MFI at 2.57 ng/mL antibody [1]: 2250 | MFI at 15.43 ng/mL antibody [1]: 4830 | MFI at 92.59 ng/mL antibody [1]: 12100 | MFI at 555.56 ng/mL antibody [1]: 27400 | MFI at 3333.33 ng/mL antibody [1]: 29700 | MFI at 20000 ng/mL antibody [1]: 36600 | EC50 (nM), inhibition of bead-bound rhCD73 enzymatic activity [2]: 3.98 nM | Kd [3]: 0.0207 µg/mL | EC50 [4]: 580 pM | Ymax, cAMP HTRF assay [5]: 76 % of 100 nM 11F11 | EC50 (nM), CD73 internalization, Calu6, 2 h [6]: 0.58 nM | Ymax, CD73 internalization, Calu6, 2 h [6]: 98 % of 100 nM 11F11 | MFI at 0.07 ng/mL antibody [7]: 200 | MFI at 0.43 ng/mL antibody [7]: 342 | MFI at 2.57 ng/mL antibody [7]: 670 | MFI at 15.43 ng/mL antibody [7]: 1150 | MFI at 92.59 ng/mL antibody [7]: 1470 | MFI at 555.56 ng/mL antibody [7]: 1640 | MFI at 3333.33 ng/mL antibody [7]: 1990 | MFI at 20000 ng/mL antibody [7]: 2660 | EC50 Calu6 inhibition [8]: 700 pM | EC50 SKMEL24 inhibition [8]: 3150 pM | Kd [9]: 1600 pM and 560 pM
